According to patent US20250250608A1, “METHODS AND COMPOSITIONS FOR ASSAYING BETA-HEXOSAMINIDASE ENZYMATIC ACTIVITY VIA MASS SPECTROMETRY” (GelbChem, LLC, priority 2024, published 2025):

Substrate: CC(=O)NC1C(Oc2ccc(NC(=O)CCN(CCCCNC(=O)c3ccccc3)C(=O)OC(C)(C)C)cc2)OC(COS(=O)(=O)O)C(O)C1O
Assay: Enzyme kinetics of HexA with the HexA substrate, endogenous enzyme from healthy adult dried blood spots, LC-MS/MS detection
Assay type: biochemical
Details: other: endogenous enzyme from healthy adult dried blood spots
Method: 3.2 mm punches were taken from dried blood samples. The punches were added into a well of a multiwell plate and in particular, a 1.0 mL deep-well 96-well plate. Following, 30 μL of the duplex assay cocktail described above was added to each well. The plate was sealed with a silicone sealing mat and shaken at 250 rpm for 4 hours at 37° C. in an orbital shaker incubator. After incubation, the enzymatic reaction was quenched by adding 100 μL of methanol: ethyl acetate (1:1) and mixed by pipetting up and down ˜10 times. Analytes were extracted by adding sodium chloride solution (0.5 M, 200 μL) and ethyl acetate (400 μL) to each well and mixed by pipetting up and down ˜10 times. […]
Analytes were detected via a WATERS™ Xevo TQ triple-quadrupole mass spectrometer. […] The following MRM traces were monitored for quantitation: HexA enzymatic reaction product (456.5>356.1), HexA/B enzymatic reaction product (461.5>361.2), and internal standard (465.5>357.1). […]
Enzyme kinetics of HexA and HexA/B were measured in relationship to the HexA substrate and HexA/B substrate, respectively, using endogenous enzymes from healthy adult dried blood spots. […]
The reaction rate for each substrate at different substrate concentrations was measured and the relationship found to be hyperbolic.

B1: HexA (Homo sapiens) (protein)
chain: TLEKNVLVVSVVTPGCNQLPTLESVENYTLTINDDQCLLLSETVWGALRGLETFSQLVWKSAEGTFFINKTEIEDFPRFPHRGLLLDTSRHYLPLSSILDTLDVMAYNKLNVFHWHLVDDPSFPYESFTFPELMRKGSYNPVTHIYTAQDVKEVIEYARLRGIRVLAEFDTPGHTLSWGPGIPGLLTPCYSGSEPSGTFGPVNPSLNNTYEFMSTFFLEVSSVFPDFYLHLGGDEVDFTCWKSNPEIQDFMRKKGFGEDFKQLESFYIQTLLDIVSSYGKGYVVWQEVFDNKVKIQPDTIIQVWREDIPVNYMKELELVTKAGFRALLSAPWYLNRISYGPDWKDFYIVEPLAFEGTPEQKALVIGGEACMWGEYVDNTNLVPRLWPRAGAVAERLWSNKLTSDLTFAYERLSHFRCELLRRGVQAQPLNVGFCEQEFEQT
notes: using endogenous enzymes from healthy adult dried blood spots; from tissue; host or cells: dried blood spots from healthy adults/individuals (3.2 mm punches)
For B1, the Km was 4,051 μM.
